The record followed here is US20230374144A1 (STAIDSON BEIJING BIOPHARMACEUTICAL, published 2023).

Changes are numbered by the printed parent chain. Where two headings read alike, the source gives them in different places.

Assay [1] addresses T1, human IL-4Rα on cells (human, UniProt P24394 26-825). The assay is described as follows: cell-based or functional assay.
Another assay addresses T2, IL-4R with mouse Fc-tag (human, UniProt P24394 26-232).
T2 construct: not shown: mouse Fc-tag
The assay is described as follows: competitive ELISA: antibody dilutions with 0.5 µg/mL IL-4R-mouse Fc on plate-captured biotinylated IL-4, anti-mouse-Fc-HRP. How it is done: Competitive ELISA: The second assay was designed to identify the anti-IL-4Rα antibodies that were capable of inhibiting the binding of hIL-4 to hIL-4Rα, as measured by competitive ELISA. Briefly, a 96-well plate was coated with 100 μL, 2.5 μg/mL SA (Streptavidin) solution, and incubated overnight at 4° C., followed by washed with TBST. Biotinylated IL-4 with the final concentration of 2 μg/mL was added into the plate and incubated at 37° C. for 1 hour. Then the plate was washed with TBST. The anti-IL-4Rα antibody samples were first diluted to 10 μg/mL, and 1004, of the sample was added to the first row of wells. 10 μg/mL anti-IL-4Rα antibody samples were then serially diluted at a 1:2 ratio and added to each of the remaining rows of wells. 504 of 0.5 μg/mL IL-4R with mouse Fc-tag was added to each well. After incubating for 1 hour at 37° C., the wells were washed with TBST 6 times. 100 µL of anti-mouse-Fc-HRP (1:10,000) was then added to each well and incubated for 1 hour at 37° C. The wells were washed with TBST 6 times before adding 1004/well of TMB, and incubated for 5-10 minutes at 37° C. 2M H₂SO₄ was used to stop the reaction. The ELISA results (OD450) were read, and the binding curves were generated by GraphPad Prism 5 software (GraphPad Software). Reference antibody Dupilumab (Regeneron, anti-IL-4Rα antibody) and AMG317 (Amgen, anti-IL-4Rα antibody) were used as positive controls, Human IgG4, kappa Isotype Control (Cat #HG4K, Sino Biological Inc.) was used as negative control, abbreviated as Human IgG4 in FIG. 1.
(In general: In an ELISA, binding on a coated surface is turned into a signal by an enzyme label.)

For assay [2], the target named is T1, human IL-4Rα on cells. The assay is described as follows: cell-based or functional assay. This is another data set of the same source.
In assay [3] the target is T1, human IL-4Rα on cells. The assay is described as follows: cell-based or functional assay. This is another data set of the same source.
The target in assay [4] is T1, human IL-4Rα on cells. The assay is described as follows: cell-based or functional assay. The source holds these as a separate data set.
For assay [5], the target named is T1, human IL-4Rα on cells. The assay is described as follows: cell-based or functional assay. This is another data set of the same source.
For assay [6], the target named is T1, human IL-4Rα on cells. The assay is described as follows: cell-based or functional assay. This is another data set of the same source.
Assay [7] deals with T1, human IL-4Rα on cells. The assay is described as follows: cell-based or functional assay. The source holds these as a separate data set.
Assay [8] addresses T1, human IL-4Rα on cells. The assay is described as follows: cell-based or functional assay. This is another data set of the same source.
For assay [9], the target named is T3, recombinant human IL-4Rα (extracellular domain, tagged) (human, UniProt P24394 26-232).
T3 construct: it is written second here only for want of that; also called hIL-4Rα; not shown: His-tag or other conventionally used tag
The assay is described as follows: SPR, Biacore T200; antibody (human IgG4) on the sensor chip, human IL-4Rα at 0.625-12.5 nM. The method, then: The binding affinity of the anti-IL-4Rα antibodies (reformatted as human IgG4) to human IL-4Rα was characterized using Biacore T200 (GE). The full-length anti-IL-4Rα antibodies were stabilized on sensor chip CMS. The affinities for human IL-4Rα at various concentrations were measured. […] Using the SPR technology, the association and dissociation rates were measured, and binding affinity was determined.
A general note: SPR reads the build-up and loss of mass on a sensor chip optically.

Assay [10] has as its target T1, human IL-4Rα on cells. The assay is described as follows: cell-based or functional assay. This is another data set of the same source.

The IC50 is the concentration needed to halve the response being measured. Usually Kd stands for the concentration at which binding is half-saturated. What is called koff is the first-order rate constant of dissociation. As usually defined, the kon is the rate constant with which the complex forms.

Regarding AMG317 (antibody), the IC50(nM), neutralization of hIL-13 (4 ng/ml), HEK-Blue IL-4/IL-13 STAT6-SEAP reporter cells with human IL-4Rα on cells [1] is 0.649 nM. The molecule further registered a concentration for half-maximal inhibition (IC50) in the assay with IL-4R with mouse Fc-tag of 0.0891 µg/mL.

B1: C27-7-33 (antibody, human IgG4, V domains shown)
VH: EVQLLESGGGLVQPGGSLRLSCAASGFTLSSYAMHWVRQAPGKGLEYVSGISPSGVSTYYANSVKGRFTISRDNPKNTLFLQMSSLRAEDTAVYYCVRVKVKYRGGMDVWGQGTTVTVSS
VL: EIVLTQSPGTLSLSPGERATLSCRASQGISSAYLAWYQQKPGQAPRLLIYGTSRRATGIPDRFSGSGSGTDFTLTISRLEPEDFAVYYCQLYGATSVTFGQGTKLEIK
Regarding B1, in the assay with human IL-4Rα on cells [2], the “IC50(nM), neutralization of hIL-4 (1.2 ng/ml), HEK-Blue IL-4/IL-13 STAT6-SEAP reporter cells” value turned out to be 0.0541 nM. Also, the “IC50(nM), inhibition of IL-13 (10 ng/mL) dependent TF-1 cell proliferation” value with human IL-4Rα on cells [3] is 0.0902 nM. Moreover, the “IC50(nM), neutralization of hIL-13 (4 ng/ml), HEK-Blue IL-4/IL-13 STAT6-SEAP reporter cells” value with human IL-4Rα on cells [4] stood at 0.0343 nM. Further, the “IC50(nM), inhibition of IL-4 (2 ng/mL) dependent TF-1 cell proliferation” value in the assay with human IL-4Rα on cells [5] was 0.0311 nM. The “IC50(nM), inhibition of TARC release in human PBMCs induced by hIL-4 (32 ng/mL)” value (from here on “IC50(nM), inhibition … (32 ng/mL)”) with human IL-4Rα on cells [6] is 0.916 nM. Also, the “IC50(nM), inhibition of TARC release in human PBMCs induced by hIL-13 (200 ng/mL)” value (from here on “IC50(nM), inhibition … (200 ng/mL)”) in the assay with human IL-4Rα on cells [7] amounted to 0.0576 nM. For the same molecule, in the assay with human IL-4Rα on cells [8], the “IC50(nM), inhibition of hIL-4 (1 ng/mL) dependent CD23 upregulation on B cells in human PBMCs” value amounted to 0.0303 nM. For the same molecule, in [9], the Kd was determined as 1010 pM, the koff is 0.000134 s⁻¹ and the on-rate (kon) stood at 134000 M⁻¹ s⁻¹. For the same molecule, in the assay with human IL-4Rα on cells [10], the “IC50(nM), inhibition of hIL-13 (20 ng/mL) dependent CD23 upregulation on B cells in human PBMCs” value amounted to 0.179 nM. Besides, in the assay with IL-4R with mouse Fc-tag, the IC50 was 0.0582 µg/mL.

B2: C27-24-56 (antibody, human IgG4, V domains shown)
VH: B1 VH with S54T, G55S, V56G, K102R
VL: B1 VL with G28S, I29V, T95S
Take B2: the “IC50(nM), neutralization of hIL-4 (1.2 ng/ml), HEK-Blue IL-4/IL-13 STAT6-SEAP reporter cells” value with human IL-4Rα on cells [2] is 0.0632 nM. In addition, the “IC50(nM), neutralization of hIL-13 (4 ng/ml), HEK-Blue IL-4/IL-13 STAT6-SEAP reporter cells” value with human IL-4Rα on cells [4] was 0.0482 nM. In assay [9], the Kd came to 1860 pM, the koff was found to be 0.000173 s⁻¹ and the on-rate (kon) came to 92700 M⁻¹ s⁻¹. Moreover, in the assay with IL-4R with mouse Fc-tag, the concentration for half-maximal inhibition (IC50) came out at 0.0632 µg/mL.

B3: C27-47-56 (antibody, human IgG4, V domains shown)
VH: B1 VH with S54T, V56T, V101G, K102A
VL: B1 VL with G28S, I29V, T95S
Regarding B3, in the assay with human IL-4Rα on cells [2], the “IC50(nM), neutralization of hIL-4 (1.2 ng/ml), HEK-Blue IL-4/IL-13 STAT6-SEAP reporter cells” value came to 0.103 nM. In addition, in the assay with human IL-4Rα on cells [3], the “IC50(nM), inhibition of IL-13 (10 ng/mL) dependent TF-1 cell proliferation” value came out at 0.0849 nM. Also, in the assay with human IL-4Rα on cells [4], the “IC50(nM), neutralization of hIL-13 (4 ng/ml), HEK-Blue IL-4/IL-13 STAT6-SEAP reporter cells” value was determined as 0.0966 nM. Also, in the assay with human IL-4Rα on cells [5], the “IC50(nM), inhibition of IL-4 (2 ng/mL) dependent TF-1 cell proliferation” value worked out at 0.0509 nM. In addition, the “IC50(nM), inhibition … (32 ng/mL)” value with human IL-4Rα on cells [6] amounted to 1.2 nM. For the same molecule, the “IC50(nM), inhibition … (200 ng/mL)” value with human IL-4Rα on cells [7] worked out at 0.0913 nM. For the same molecule, the “IC50(nM), inhibition of hIL-4 (1 ng/mL) dependent CD23 upregulation on B cells in human PBMCs” value in the assay with human IL-4Rα on cells [8] turned out to be 0.0814 nM. Besides, in assay [9], the dissociation constant Kd came out at 1820 pM, the off-rate (koff) was 0.000195 s⁻¹ and the kon was determined as 107000 M⁻¹ s⁻¹. For the same molecule, the “IC50(nM), inhibition of hIL-13 (20 ng/mL) dependent CD23 upregulation on B cells in human PBMCs” value in the assay with human IL-4Rα on cells [10] worked out at 0.698 nM. Besides, the half-maximal inhibitory concentration (IC50) with IL-4R with mouse Fc-tag stood at 0.0651 µg/mL.

B4: Dupilumab (antibody, V domains shown)
VH: EVQLVESGGGLEQPGGSLRLSCAGSGFTFRDYAMTWVRQAPGKGLEWVSSISGSGGNTYYADSVKGRFTISRDNSKNTLYLQMNSLRAEDTAVYYCAKDRLSITIRPRYYGLDVWGQGTTVTVSS
VL: DIVMTQSPLSLPVTPGEPASISCRSSQSLLYSIGYNYLDWYLQKSGQSPQLLIYLGSNRASGVPDRFSGSGSGTDFTLKISRVEAEDVGFYYCMQALQTPYTFGQGTKLEIKR
In the case of B4, in the assay with human IL-4Rα on cells [2], the “IC50(nM), neutralization of hIL-4 (1.2 ng/ml), HEK-Blue IL-4/IL-13 STAT6-SEAP reporter cells” value stood at 0.165 nM. Moreover, the “IC50(nM), inhibition of IL-13 (10 ng/mL) dependent TF-1 cell proliferation” value with human IL-4Rα on cells [3] was determined as 0.301 nM. For the same molecule, the “IC50(nM), neutralization of hIL-13 (4 ng/ml), HEK-Blue IL-4/IL-13 STAT6-SEAP reporter cells” value in the assay with human IL-4Rα on cells [4] was found to be 0.136 nM. In addition, in the assay with human IL-4Rα on cells [5], the “IC50(nM), inhibition of IL-4 (2 ng/mL) dependent TF-1 cell proliferation” value is 0.253 nM. For the same molecule, in the assay with human IL-4Rα on cells [6], the “IC50(nM), inhibition … (32 ng/mL)” value was 0.63 nM. Also, the “IC50(nM), inhibition … (200 ng/mL)” value with human IL-4Rα on cells [7] worked out at 0.0323 nM. Also, the “IC50(nM), inhibition of hIL-4 (1 ng/mL) dependent CD23 upregulation on B cells in human PBMCs” value with human IL-4Rα on cells [8] turned out to be 0.119 nM. In the assay with human IL-4Rα on cells [10], the “IC50(nM), inhibition of hIL-13 (20 ng/mL) dependent CD23 upregulation on B cells in human PBMCs” value was found to be 2.8 nM. The IC50 with IL-4R with mouse Fc-tag is 0.0838 µg/mL.
